Data on 1 molecule can be found in article PMC7511342, “Polyol and sugar osmolytes can shorten protein hydrogen bonds to modulate function” (Communications Biology, 2020).

In the assay the target is T1, PDZ3 (the third PDZ domain of the neuronal signaling protein PSD-95/SAP90, residue 303-395) (UniProt P31016 303-395).
T1 construct: third PDZ domain of PSD-95/SAP90, residues 303-395; 15N-labelled for the NMR titration; also called PDZ3^303-395
Put plainly: NMR titration; 2D 1H-15N HSQC of 15N-labelled PDZ3 303-395 (20 uM) titrated with CRIPT peptide 0-100 uM; 308 K; 20 mM sodium phosphate, 50 mM NaCl, pH 7.0; no osmolyte; single-site fit of 12 backbone amides, averaged. The following applies: both partners purified.

T1 sequence (P31016 303-395): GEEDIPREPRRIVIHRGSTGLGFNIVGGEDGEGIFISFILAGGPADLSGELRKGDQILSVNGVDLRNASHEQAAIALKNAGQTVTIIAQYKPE

B1: C-terminal peptide from CRIPT (Ac-TKNYKQTSV-COOH) (peptide)
peptide: Ac-TKNYKQTSV-OH
notes: C-terminal nine residues of CRIPT; also called CRIPT peptide; source: synthetic peptide (APeptide Co. Ltd, Shanghai, China)
B1: the Kd (as a rule, the constant that tells how readily two partners part at equilibrium) was about 13 µM.
